Experiment [1] concerns the target human CD3 recombinant protein (Acro, Cat. No. CDD-H52W1) (human) (UniProt P07766). The experiment can be described thus: SPR (Biacore), CD3 immobilised on CM5 chip, antibody as analyte, 1:1 model. Background: In SPR one partner is held on a chip, and binding of the other changes the refractive index at the surface.
Experiment [2] deals with cynomolgus monkey CD3 recombinant protein (Acro, Cat. No. CDD-C52W4) (cynomolgus monkey) (UniProt Q95LI5). Described as above.
Chain of cynomolgus monkey CD3 recombinant protein (Acro, Cat. No. CDD-C52W4) (cynomolgus monkey) (Q95LI5 22-117): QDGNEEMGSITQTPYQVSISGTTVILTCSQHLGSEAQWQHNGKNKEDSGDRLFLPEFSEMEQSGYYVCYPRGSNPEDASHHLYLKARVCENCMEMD
Experiment [3] deals with human CD3 naturally expressed on Jurkat T lymphocytes and human PBMCs (human) (UniProt P07766). The experiment can be described thus: flow cytometry (FACS), Jurkat cells. In general terms: A flow cytometer gives signals particle by particle.
Chain of human CD3 naturally expressed on Jurkat T lymphocytes and human PBMCs (human) (P07766 23-207): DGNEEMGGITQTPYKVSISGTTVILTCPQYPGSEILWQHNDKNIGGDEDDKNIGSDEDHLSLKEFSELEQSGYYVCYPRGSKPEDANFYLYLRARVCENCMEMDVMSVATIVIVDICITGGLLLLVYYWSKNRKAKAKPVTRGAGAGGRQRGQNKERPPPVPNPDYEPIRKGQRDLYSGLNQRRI
Experiment [4] concerns the target human GPRC5D (human-GPRC5D) (human) (UniProt Q9NZD1). The experiment can be described thus: flow cytometry (FACS), human GPRC5D-CHOK1 cells.
Experiment [5] concerns the target human BCMA (human-BCMA) (human) (UniProt Q02223). The experiment can be described thus: flow cytometry (FACS), human BCMA-CHOK1 cells.
For experiment [6], the target named is human BCMA recombinant protein (Acro, Cat. No. BCA-H522y) (human) (UniProt Q02223). The experiment can be described thus: SPR (Biacore), antibody captured by anti-human IgG (Fc) on CM5 chip, BCMA as analyte, 1:1 model.
Chain of human BCMA recombinant protein (Acro, Cat. No. BCA-H522y) (human) (Q02223 1-54 limits assumed): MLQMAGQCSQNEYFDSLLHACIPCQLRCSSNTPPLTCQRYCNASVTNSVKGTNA
Experiment [7] has as its target cynomolgus monkey BCMA recombinant protein (Acro, Cat. No. BCA-C52H7) (cynomolgus monkey). Described as above.
Experiment [8] addresses cynomolgus monkey BCMA (cyno-BCMA) (cynomolgus monkey). The experiment is described as follows: flow cytometry (FACS), cynomolgus monkey BCMA-CHOK1 cells.
Experiment [9] concerns the target human BCMA (human-BCMA) (human) (UniProt Q02223). The experiment is described as follows: cell-based or functional assay.
In another experiment the target is soluble BCMA (UniProt Q02223). The experiment can be described thus: cell-based or functional assay.
Chain of soluble BCMA (Q02223 1-54 limits assumed): as above
The target in experiment [10] is human CD3 naturally expressed on Jurkat T lymphocytes and human PBMCs (human) (UniProt P07766). The experiment is described as follows: flow cytometry (FACS), human PBMCs.
Experiment [11] deals with human BCMA (human-BCMA) (human) (UniProt Q02223). The experiment can be described thus: flow cytometry (FACS), NCI-H929 cells.
Chain of human BCMA (human-BCMA) (human) (Q02223 whole entry): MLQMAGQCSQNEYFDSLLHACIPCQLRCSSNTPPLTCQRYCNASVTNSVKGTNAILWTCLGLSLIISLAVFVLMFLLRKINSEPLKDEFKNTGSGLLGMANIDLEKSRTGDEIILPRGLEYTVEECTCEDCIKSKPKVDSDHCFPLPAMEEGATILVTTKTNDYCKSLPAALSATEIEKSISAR
The target in experiment [12] is cynomolgus monkey CD3 naturally expressed on cyno PBMCs (cynomolgus monkey) (UniProt Q95LI5). The experiment can be described thus: flow cytometry (FACS), cyno PBMCs.
Chain of cynomolgus monkey CD3 naturally expressed on cyno PBMCs (cynomolgus monkey) (Q95LI5 22-198): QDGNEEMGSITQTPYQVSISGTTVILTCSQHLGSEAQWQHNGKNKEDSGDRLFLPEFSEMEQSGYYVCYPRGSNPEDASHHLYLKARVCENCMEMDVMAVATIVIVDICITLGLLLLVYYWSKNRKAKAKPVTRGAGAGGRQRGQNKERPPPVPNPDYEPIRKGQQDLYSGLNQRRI
Experiment [13] has as its target human BCMA (human-BCMA) (human) (UniProt Q02223). The experiment is described as follows: flow cytometry (FACS), RPMI8226 cells.
The target of experiment [14] is human BCMA and human GPRC5D, the dual targets expressed on NCI-H929 and RPMI8226 tumor cells. The experiment can be described thus: flow cytometry (FACS), NCI-H929 cells.
For experiment [15] the target is unchanged. The experiment can be described thus: flow cytometry (FACS), RPMI8226 cells.

Three substances from patent publication US20260234280A1 can be followed below.

For orientation: Kd means the free concentration of one partner at which half of the binding sites on the other are occupied at equilibrium, for simple one-to-one binding. A word on the koff: it is the rate constant with which the complex falls apart. In general, kon refers to a measure of how fast the partners come together. The EC50 is the concentration at which the effect is half-maximal.

Chain of human CD3 recombinant protein (Acro, Cat. No. CDD-H52W1) (human) (P07766 23-126): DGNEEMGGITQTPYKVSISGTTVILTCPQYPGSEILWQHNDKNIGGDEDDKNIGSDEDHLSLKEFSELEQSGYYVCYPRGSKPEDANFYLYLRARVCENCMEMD
Chain of cynomolgus monkey BCMA (cyno-BCMA) (cynomolgus monkey) (Q02223 other isoform, or with tags, fused parts or gaps): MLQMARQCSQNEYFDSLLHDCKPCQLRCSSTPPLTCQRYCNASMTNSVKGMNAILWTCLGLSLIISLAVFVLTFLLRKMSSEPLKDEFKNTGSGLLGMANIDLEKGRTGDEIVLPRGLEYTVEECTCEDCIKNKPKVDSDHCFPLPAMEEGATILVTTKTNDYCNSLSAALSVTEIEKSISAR
Chain of human GPRC5D (human-GPRC5D) (human) (Q9NZD1 whole entry): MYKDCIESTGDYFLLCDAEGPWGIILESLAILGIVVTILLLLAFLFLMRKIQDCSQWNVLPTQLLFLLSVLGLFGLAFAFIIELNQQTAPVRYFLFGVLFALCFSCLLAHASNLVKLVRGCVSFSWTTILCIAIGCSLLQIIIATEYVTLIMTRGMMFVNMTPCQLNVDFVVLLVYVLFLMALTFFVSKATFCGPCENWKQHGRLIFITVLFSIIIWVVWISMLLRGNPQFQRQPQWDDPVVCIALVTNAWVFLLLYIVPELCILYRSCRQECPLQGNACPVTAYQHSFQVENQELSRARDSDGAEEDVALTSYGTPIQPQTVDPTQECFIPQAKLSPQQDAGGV

Consider “Talquetamab analogue (GPRC5D/CD3), GPRC5DxCD3 bispecific antibody from Janssen”, for which, in [1], the dissociation constant Kd amounted to 18 nM, the koff amounted to 0.00201 s⁻¹ and the kon is 112000 M⁻¹ s⁻¹. For the same substance, in experiment [2], the Kd was 22.2 nM, the koff came to 0.00379 s⁻¹ and the kon is 170000 M⁻¹ s⁻¹.

As to “Teclistamab analogue (BCMA/CD3), BCMAxCD3 bispecific antibody from Janssen”, the concentration giving a half-maximal response (EC50) in [3] is 3.22 nM; in experiment [5], 2.63 nM; in [8], 15.3 nM; in [10], 6.06 nM; in experiment [11], 2.43 nM; in experiment [12], 55.8 nM. The same substance yielded an EC50 in experiment [13] of 1.17 nM. For the same substance, the Top MFI in experiment [3] turned out to be 825 MFI; in [4], 160 MFI; in experiment [5] it was 2280 MFI; in experiment [8] it was 1770 MFI; in experiment [10], 672 MFI; in [11] it was 669 MFI. For the same substance, the Top MFI in experiment [12] turned out to be 2060 MFI; in [13], 169 MFI. The Kd in experiment [6] came out at 0.379 nM; in [7] it was 8.49 nM; in experiment [1] it was 21 nM; in [2], 21.1 nM. In addition, the off-rate (koff) in experiment [6] was found to be 0.00135 s⁻¹; in experiment [7], 0.0235 s⁻¹; in [1], 0.00522 s⁻¹; in [2], 0.00336 s⁻¹. Besides, the kon in [6] stood at 3.55e+06 M⁻¹ s⁻¹; in experiment [7] it was 2.77e+06 M⁻¹ s⁻¹; in [1] it was 248000 M⁻¹ s⁻¹; in experiment [2], 159000 M⁻¹ s⁻¹. The substance also returned a TDCC Cytotoxicity (max) on NCI-H929 with 0 ug/ml BCMA in experiment [9] of 40.9. Also, in experiment [9], the TDCC EC50 (nM) on NCI-H929 with 0 ug/ml BCMA was determined as 0.115 nM. Besides, the Ratio (EC50), TDCC on NCI-H929 with 2.5 ug/ml against 0 ug/ml BCMA with soluble BCMA is 21. This substance also yielded a TDCC Cytotoxicity (max) on NCI-H929 with 2.5 ug/ml BCMA in the experiment with soluble BCMA of 53.9. The TDCC EC50 (nM) on NCI-H929 with 2.5 ug/ml BCMA with soluble BCMA was found to be 2.36 nM. Also, in the experiment with soluble BCMA, the fold change of TDCC EC50 on NCI-H929 in the presence of 2500 ng/ml soluble BCMA was 25 fold.

On to “hIgG1 LALA isotype (Biointron, Cat. No. B109802) (antibody)”, for which the Top MFI was found to be 104 MFI in [14] and 112 MFI in experiment [15].
